Measurements published in PMC7721737, “Cytosolic sequestration of the vitamin D receptor as a therapeutic option for vitamin D-induced hypercalcemia” (Nature Communications, 2020).

Experiments:
[1] = molecular target: T1, full-length human vitamin D receptor (hVDR, amino acid 1-427), His-tagged (human, UniProt P11473 1-427); experiment: MST; ZK-bound VDR
T1 chain: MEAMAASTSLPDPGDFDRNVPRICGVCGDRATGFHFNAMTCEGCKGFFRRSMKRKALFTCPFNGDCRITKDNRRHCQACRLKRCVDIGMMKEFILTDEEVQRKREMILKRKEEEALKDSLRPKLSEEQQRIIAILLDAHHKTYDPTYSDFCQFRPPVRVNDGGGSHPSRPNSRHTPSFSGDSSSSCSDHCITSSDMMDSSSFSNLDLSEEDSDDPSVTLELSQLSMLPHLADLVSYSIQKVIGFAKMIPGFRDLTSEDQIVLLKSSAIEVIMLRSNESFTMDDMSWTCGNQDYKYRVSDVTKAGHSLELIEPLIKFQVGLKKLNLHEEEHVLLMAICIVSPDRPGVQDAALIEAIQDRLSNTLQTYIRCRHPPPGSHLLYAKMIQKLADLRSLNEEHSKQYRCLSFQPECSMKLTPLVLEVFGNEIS

[2] = molecular target: T2, full-length human vitamin D receptor (hVDR, amino acid 1-427), His-tagged (human, UniProt P11473 1-427); experiment: MST; Monolith NT.115; 10 nM Red-NHS labelled full-length hVDR with or without ZK; unlabelled WBP4 122-196 from 100 µM to 1 nM; 20 mM Hepes pH 7.5, 200 mM NaCl, 2% glycerol, 1 mM TCEP, 0.05% Tween 20; 25 °C; 1:1 fit, apparent Kd; details: both partners purified
T2 construct: For microscale thermophoresis the protein was labelled with the Red-NHS second generation labelling kit (NanoTemper); also called NR1I1; hVDR full-length; source: E. coli BL21 DE3, purified (HisTrap, SEC)
T2 sequence (looked up): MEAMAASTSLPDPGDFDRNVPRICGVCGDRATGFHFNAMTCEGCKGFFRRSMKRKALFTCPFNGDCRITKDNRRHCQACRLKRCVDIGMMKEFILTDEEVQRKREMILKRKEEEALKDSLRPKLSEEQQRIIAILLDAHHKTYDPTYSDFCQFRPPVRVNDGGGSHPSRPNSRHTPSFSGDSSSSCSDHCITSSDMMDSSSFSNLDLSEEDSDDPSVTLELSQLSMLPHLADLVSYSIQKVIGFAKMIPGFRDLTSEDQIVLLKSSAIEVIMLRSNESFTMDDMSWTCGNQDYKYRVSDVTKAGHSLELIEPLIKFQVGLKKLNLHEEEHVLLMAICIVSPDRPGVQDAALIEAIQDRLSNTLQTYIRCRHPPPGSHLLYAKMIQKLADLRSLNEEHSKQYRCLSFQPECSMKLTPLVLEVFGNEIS

[3] = molecular target: T2, full-length human vitamin D receptor …; experiment: SEC; mixed in stoichiometric amounts and purified on HiLoad Superdex 200 in 20 mM Tris pH 8.0, 75 mM NaCl, 75 mM KCl, 2 mM CHAPS, 5% glycerol, 4 mM MgSO4, 1 mM TCEP; heterodimer then used for HDX-MS (apo, 1,25D3, ZK); details: both partners purified
[4] = molecular target: T3, ligand binding domain of hVDR (aa 118-427), His-tagged (human, UniProt P11473 118-427); experiment: SPR; Biacore T200, hRXRα LBD monomers amine-coupled on CM5 (400-500 RU); hVDR LBD 1-30 µM without ligand or with a 3-fold excess of 1,25D3 or ZK; 50 mM Tris pH 7.5, 150 mM NaCl, 1 mM TCEP, 0.005% Tween 20; steady state fit; details: both partners purified
T3 construct: also called hVDR LBD; source: E. coli BL21 DE3, purified (HisTrap, SEC)
T3 sequence (looked up): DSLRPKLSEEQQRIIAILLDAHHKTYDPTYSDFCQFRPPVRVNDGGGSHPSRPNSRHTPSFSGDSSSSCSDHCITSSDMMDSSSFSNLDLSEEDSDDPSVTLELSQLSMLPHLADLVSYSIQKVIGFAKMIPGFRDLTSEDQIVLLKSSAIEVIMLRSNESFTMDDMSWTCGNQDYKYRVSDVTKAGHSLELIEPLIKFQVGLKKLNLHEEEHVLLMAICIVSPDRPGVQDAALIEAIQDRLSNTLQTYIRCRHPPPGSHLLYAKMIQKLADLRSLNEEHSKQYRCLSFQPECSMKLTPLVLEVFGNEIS

B1: hWBP4 polypeptide (amino acid 122-196) encompassing the two WW domains (domain or fragment, human, UniProt O75554 122-196, looked up)
chain: DPSKGRWVEGITSEGYHYYYDLISGASQWEKPEGFQGDLKKTAVKTVWVEGLSEDGFTYYYNTETGESRWEKPDD
notes: also called FBP21; source: E. coli BL21 DE3, purified (glutathione sepharose, thrombin cleavage, SEC); not shown: GST, N-terminal, cleaved
Kd [1]: 11 µM
fold increase of the affinity in the presence of ZK against without ZK [2]: ~2 fold

B2: N-terminal domain truncated human RXRalpha (hRXRαΔNTD, amino acid 130-462), His-tagged (domain or fragment, UniProt P19793 130-462, looked up)
chain: FTKHICAICGDRSSGKHYGVYSCEGCKGFFKRTVRKDLTYTCRDNKDCLIDKRQRNRCQYCRYQKCLAMGMKREAVQEERQRGKDRNENEVESTSSANEDMPVERILEAELAVEPKTETYVEANMGLNPSSPNDPVTNICQAADKQLFTLVEWAKRIPHFSELPLDDQVILLRAGWNELLIASFSHRSIAVKDGILLATGLHVHRNSAHSAGVGAIFDRVLTELVSKMRDMQMDKTELGCLRAIVLFNPDSKGLSNPAEVEALREKVYASLEAYCKHKYPEQPGRFAKLLLRLPALRSIGLKCLEHLFFFKLIGDTPIDTFLMEMLEAPHQMT
notes: source: E. coli BL21 DE3, purified (HisTrap, SEC)
binding result [3]: binds

B3: ligand binding domain of hRXRα (aa 223-462), His-tagged (domain or fragment, human, UniProt P19793 223-462, looked up)
chain: TSSANEDMPVERILEAELAVEPKTETYVEANMGLNPSSPNDPVTNICQAADKQLFTLVEWAKRIPHFSELPLDDQVILLRAGWNELLIASFSHRSIAVKDGILLATGLHVHRNSAHSAGVGAIFDRVLTELVSKMRDMQMDKTELGCLRAIVLFNPDSKGLSNPAEVEALREKVYASLEAYCKHKYPEQPGRFAKLLLRLPALRSIGLKCLEHLFFFKLIGDTPIDTFLMEMLEAPHQMT
notes: Immobilised as monomers on the SPR chip; also called hRXRα LBD; source: E. coli BL21 DE3, purified (HisTrap, SEC)
binding result [4]: binds
